Earlier results on 3 substances are cited in publication PMC4934914.

In data set [1] the target is BsHemH (Bacillus subtilis) (UniProt P32396).
Data set [2] deals with BsSufU (Bacillus subtilis) (UniProt O32163).
In data set [3] the target is IscS (Escherichia coli) (UniProt P0A6B7).
Sequence of IscS (Escherichia coli) (P0A6B7 whole entry): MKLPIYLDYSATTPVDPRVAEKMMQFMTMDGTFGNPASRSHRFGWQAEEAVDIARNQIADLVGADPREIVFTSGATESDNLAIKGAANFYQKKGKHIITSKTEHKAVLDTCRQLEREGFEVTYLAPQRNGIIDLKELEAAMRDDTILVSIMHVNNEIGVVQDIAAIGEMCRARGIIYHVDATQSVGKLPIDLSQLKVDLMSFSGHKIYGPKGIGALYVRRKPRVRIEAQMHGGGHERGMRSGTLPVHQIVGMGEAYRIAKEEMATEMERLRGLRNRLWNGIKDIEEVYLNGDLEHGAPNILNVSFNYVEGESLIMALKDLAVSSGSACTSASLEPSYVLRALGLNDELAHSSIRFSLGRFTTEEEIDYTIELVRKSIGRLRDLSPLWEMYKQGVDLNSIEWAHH

Sequence of BsSufS (O32164 whole entry): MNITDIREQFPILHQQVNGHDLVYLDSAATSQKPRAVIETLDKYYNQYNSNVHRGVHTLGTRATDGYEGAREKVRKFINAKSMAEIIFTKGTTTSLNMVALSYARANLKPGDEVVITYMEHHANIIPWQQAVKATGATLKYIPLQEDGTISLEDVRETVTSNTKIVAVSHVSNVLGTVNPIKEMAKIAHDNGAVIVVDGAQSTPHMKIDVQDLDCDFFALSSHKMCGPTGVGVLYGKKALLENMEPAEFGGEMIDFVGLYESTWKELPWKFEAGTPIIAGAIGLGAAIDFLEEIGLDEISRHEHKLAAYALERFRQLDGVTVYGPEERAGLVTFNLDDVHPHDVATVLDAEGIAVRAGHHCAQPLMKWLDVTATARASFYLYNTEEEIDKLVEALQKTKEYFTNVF
Sequence of BsHemH (Bacillus subtilis) (P32396 whole entry): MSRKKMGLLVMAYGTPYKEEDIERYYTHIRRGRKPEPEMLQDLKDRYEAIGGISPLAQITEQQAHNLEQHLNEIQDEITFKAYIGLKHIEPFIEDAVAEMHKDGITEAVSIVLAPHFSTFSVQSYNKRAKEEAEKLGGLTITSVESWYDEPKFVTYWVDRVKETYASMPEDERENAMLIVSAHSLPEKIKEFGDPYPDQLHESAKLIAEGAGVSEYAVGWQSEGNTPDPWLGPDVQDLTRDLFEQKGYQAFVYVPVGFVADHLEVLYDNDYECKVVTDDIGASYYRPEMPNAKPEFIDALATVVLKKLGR
Sequence of BsSufU (Bacillus subtilis) (O32163 whole entry): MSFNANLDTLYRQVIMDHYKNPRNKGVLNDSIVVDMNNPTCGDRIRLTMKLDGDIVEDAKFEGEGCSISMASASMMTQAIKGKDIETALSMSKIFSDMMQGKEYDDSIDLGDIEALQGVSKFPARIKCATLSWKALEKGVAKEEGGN
Sequence of BsFra (frataxin) (Q797E6 whole entry): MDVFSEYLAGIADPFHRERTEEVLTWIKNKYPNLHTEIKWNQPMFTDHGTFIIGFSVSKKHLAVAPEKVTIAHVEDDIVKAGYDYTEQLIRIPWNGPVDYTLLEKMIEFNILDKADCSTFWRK
Sequence of CyaY (P27838 whole entry): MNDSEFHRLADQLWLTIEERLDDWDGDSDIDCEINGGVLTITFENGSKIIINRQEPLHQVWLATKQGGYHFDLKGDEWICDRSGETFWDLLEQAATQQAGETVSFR

What is called Kd is the free concentration of one partner at which half of the binding sites on the other are occupied at equilibrium, for simple one-to-one binding. Turning to BsFra (frataxin) (from UniProt Q797E6), the dissociation constant Kd in data set [1] is 1630 nM.

With BsSufS (from UniProt O32164), the Kd in data set [2] was 2630 nM.

Regarding CyaY (from UniProt P27838), in data set [3], the Kd is 18500 nM.
